Results taken from paper doi:10.1101/284836.

What was measured:
[1] = tested on: EcCRP-HIS (Escherichia coli); experiment: EMSA
[2] = tested on: HiCRP-HIS (Haemophilus influenzae); experiment: EMSA

Substance | binding signal [1] | binding signal [2]
pilA-N promoter (CRP-N), Fig. 3 bait | 77 % shifted | 6 % shifted
pilA promoter (CRP-S), Fig. 3 bait | 30 % shifted | 
